Experimental data as given in patent US20250154236A1, “PREVENTION AND TREATMENT OF HEADACHES” (GlaxoSmithKline Intellectual Property (No. 3) Limited, priority 2022, published 2025).
Like-named read-outs stand apart in the source and are kept apart here.

Legend:
[1] = test system: adult rat trigeminal ganglia neurons; assay: CGRP release from cultured rat trigeminal ganglia neurons (ELISA); format: cell-based
Procedure: (§1) TG Cultures were prepared from 8-10-week Sprague-Dawley rats. Following cervical dislocation and cardiac cessation, trigeminal ganglia (TG) were dissociated and collected in ice cold HBSS buffer. TGs were digested in 20 U/ml papain for 20 min followed by another 20-min enzymatic digestion in 2% Collagenase Type 4 and Dispase II in 37° C. water bath. Digested TG ganglia were suspended in Leibovitz's L15 medium containing 10% Fetal Bovine Serum, 1% penicillin/streptomycin, 18.5 mM NaHCO3, 38 mM glucose. Cell suspensions were filtered in a 70 μm then a 40 μm cell strainer and were layered onto Leibovitz's L15 medium containing 4% BSA cushion followed by slow speed centrifuge at 100 g, 10 min. Cell pellets were suspended with DMEM medium containing 10% Fetal Bovine Serum and 1% penicillin/streptomycin. Cells were plated onto 96-well plates and cultured for 24 hours at 37° C., 5% CO2. Recombinant rat artemin protein and vehicle control buffer were added into appropriate wells for 24-hour pre-incubation as needed. For experiments testing the effect of an anti-artemin antibody or RET inhibitor, these agents were added to the TG culture simultaneously with artemin for 24 h for CGRP and SP assay or 48 h for PACAP assay. After 24 h or 48 h incubation, cell culture medium was removed and assay buffer containing TRPV1 agonist capsaicin (CAP) or TRPA1 agonist allyl isothiocyanate (AITC) were added into wells and incubated at 37° C., 10 min to trigger neuropeptide release. At the end of stimulation, the supernatant was collected and CGRP and SP content were measured using ELISA assay kits (Bertin Bioreagent). For PACAP assay, cells were cultured and pre-incubated with artemin for 48 hours prior to agonist stimulation to trigger PACAP release. PACAP content in supernatant was measured using an in-house developed ELISA assay.

[2] = test system: adult rat trigeminal ganglia neurons; assay: as above; format: cell-based; conditions: Neuron, 0.5 h
rat TG neurons [3] = assay: Substance P release from cultured rat trigeminal ganglia neurons (ELISA); format: cell-based; conditions: artemin pre-incubation
Procedure: as §1, with “For experiments testing the effect of an anti-artemin antibody or RET inhibitor, these agents were added to the TG culture simultaneously with artemin for 24 h for CGRP and SP assay or 48 h for PACAP assay. After 24 h or 48 h incubation, cell culture medium was removed and assay buffer containing TRPV1 agonist capsaicin (CAP) or TRPA1 agonist allyl isothiocyanate (AITC) were added into wells and incubated at 37° C., 10 min to trigger neuropeptide release.” left out, “For PACAP assay, cells were cultured and pre-incubated with artemin for 48 hours prior to agonist stimulation to trigger PACAP release.” left out

rat TG neurons [4] = assay: PACAP release from cultured rat trigeminal ganglia neurons (in-house ELISA); format: cell-based; conditions: artemin treatment for 48 hours
Procedure: as §1, with “For experiments testing the effect of an anti-artemin antibody or RET inhibitor, these agents were added to the TG culture simultaneously with artemin for 24 h for CGRP and SP assay or 48 h for PACAP assay. After 24 h or 48 h incubation, cell culture medium was removed and assay buffer containing TRPV1 agonist capsaicin (CAP) or TRPA1 agonist allyl isothiocyanate (AITC) were added into wells and incubated at 37° C., 10 min to trigger neuropeptide release.” left out, “For PACAP assay, cells were cultured and pre-incubated with artemin for 48 hours prior to agonist stimulation to trigger PACAP release.” left out

[5] = test system: rat (preclinical migraine model); assay: Artemin dural infusion study, periorbital von Frey sensitivity; format: in vivo; conditions: local dural infusion daily for five consecutive days, 0.018, 0.18 and 1.8 μg; versus vehicle, first two weeks
Procedure: Briefly, three different doses of rat artemin protein, inflammatory soup cocktail and vehicle buffer were administered daily via a stainless-steel cannula (22GA, Plastics One) embedded onto dura for 5 consecutive days to produce persistent facial hypersensitivity. Sensory testing occurred during the day using von Frey filaments with reproducible calibrated buckling forces varying from 0.4-10 g utilizing the simplified Chaplan up-and-down method. Allodynia was tested by perpendicularly touching the periorbital region causing slight buckling of the filament for approximately 5 seconds. The periorbital withdrawal threshold (g) was calculated based on the response pattern and the force of the final filament. The periorbital threshold data was recorded on the side of artemin, Inflammatory Soup Cocktail, or vehicle infusion only.

For `COc1cc(CNC(=O)CCCC/C=C/C(C)C)ccc1O` [CAP, capsaicin, reference compound], the EC50 ([1]; Neuron, CAP+ARTN (24 h), 10 ng/ml rat artemin, read-out: EC50 of CAP for CGRP release) was 20.2 nM, the EC50 ([1]; Rattus norvegicus, Neuron, CAP alone, no artemin, read-out: EC50 of CAP for CGRP release) was 21.6 nM and the EC50 ([2]; CAP+ARTN (30 min), 10 ng/ml rat artemin, read-out: EC50 of CAP for CGRP release) was 17.9 nM.

In the case of `C=CCN=C=S` [AITC, allyl isothiocyanate, reference compound], the EC50 ([1]; Rattus norvegicus, Neuron, 24 h, read-out: EC50 of AITC for CGRP release) is reported as 6940 nM, the EC50 ([1]; Rattus norvegicus, Neuron, read-out: EC50 of AITC for CGRP release) is reported as 17800 nM and the EC50 ([2]; Rattus norvegicus, read-out: EC50 of AITC for CGRP release) is reported as 6600 nM.

B1: artemin: Recombinant rat artemin protein, member of GDNF ligand family (protein)
chain: AGTRSSRARATDARGCRLRSQLVPVSALGLGHSSDELIRFRFCSGSCRRARSPHDLSLASLLDAGALRSPPGSRPISQPCCRPTRYEAVSFMDVNSTWRTVDHLSATACGCLG
In the case of B1, the “EC50 for artemin-potentiation of CGRP release” value ([1]; AITC stimulation, 24 hours of treatment) is reported as 0.092 ng/mL, the EC50 ([1]; AITC stimulation, 24 hours of treatment, read-out: EC50 for artemin-potentiation of CGRP release) is reported as 0.0038 nM and the “artemin concentration reaching maximal effect on stimulated CGRP release” value ([1]; CAP and AITC fixed at ~EC50, artemin range 0.001 to 100 ng/ml) is reported as 1 ng/mL. The “EC50 for artemin-potentiation of CGRP release” value ([1]; CAP stimulation, 24 hours of treatment) was 0.028 ng/mL, the “effect on CAP- and AITC-stimulated Substance P (SP) release” value (rat TG neurons [3]) was “dose-dependently increased” and the “effect on CAP- and AITC-stimulated PACAP release” value (rat TG neurons [4]) was “potentiated”. For the same molecule, the “periorbital sensitivity to mechanical stimulation” value [5] was “significantly increased”.
